In US20140161821A1, “TREATMENT WITH ANTI-PCSK9 ANTIBODIES” (PFIZER INC., priority 2011, published 2014):

Tests used:
PCSK9 [1] = target: T1, PCSK9 (Rattus norvegicus, UniProt P59996); assay: Dose-response of serum cholesterol and triglycerides in Sprague-Dawley rats, single IP dose; assay type: in vivo
T1 construct: endogenous in cells; host or cells: live Sprague-Dawley rats (in vivo, serum PCSK9)
Text: The duration of the cholesterol repression was also dose dependent, ranging from 1 to 21 days.

PCSK9 [2] = assay: LDL-C and HDL-C in cynomolgus monkeys after IV dosing; assay type: in vivo
Text: One (1) mg/kg dosing reached a maximum effect of 71% reduction in LDL-C on day 5, and began to recover immediately thereafter, reaching pre-dose levels by day 14. Three (3) mg/kg dosing reached a maximum effect of 72% reduction in LDL-C by day 7, levels began to recover by day 13, and returned to baseline by day 22. Ten (10) mg/kg dosing maintained the 70% reduction in LDL-C levels until day 21 post-dosing, and animals fully recovered by day 31. […] HDL-C levels were not affected by L1L3 treatment in all dose groups.
These two additional doses again lowered LDL-C and kept LDL-C levels below 50% for 4 weeks. LDL-C levels returned to normal two weeks later.

[3] = PK study, single bolus i.v. injection in cynomolgus monkeys, total antibody concentration; assay type: in vivo
[4] = Example 2 clinical study, single escalating IV doses: pharmacokinetics (NCA); assay type: in vivo, human
Experimental: The subjects, investigator, and site personnel (except site personnel responsible for drug preparation) were blinded to treatment assignments, as was the CRO designee; while the Sponsor clinical research team was unblinded. The study was conducted in 6 planned cohorts of 8 subjects per cohort in an effort to seek a maximum tolerated dose or MTD (total of approximately 48 subjects). […] Doses were administered following an overnight fast as an intravenous infusion over 60 minutes. […] Infusions will be administered as a single infusion over 60 minutes. […]
Drug was prepared by qualified unblinded site personnel and dispensed in a blinded fashion to the patient and immediate study staff.
In addition, single PK samples were obtained on Days 4, 7, 14, 21, 28 and additional PK follow-up visit (if applicable). One sample was drawn at each time point.

[5] = Example 6 clinical study: safety and immunogenicity; assay type: in vivo, human; conditions: IV every 4 weeks, stable daily statin
Experimental: Subjects were seen periodically in the clinic for safety assessments and collection of blood for safety labs, lipid profiles, PK, PD, and immunogenicity samples. Telephone contacts were made prior to each visit to remind them of the 10-hour fasting requirements, during screening and on Day 3 to assess adverse events and document the contact in the subject's source document. […] Infusion rates were carefully controlled by an infusion device per protocol. Infusions were administered as a single infusion over approximately 60 minutes.

T1 sequence (P59996 152-691): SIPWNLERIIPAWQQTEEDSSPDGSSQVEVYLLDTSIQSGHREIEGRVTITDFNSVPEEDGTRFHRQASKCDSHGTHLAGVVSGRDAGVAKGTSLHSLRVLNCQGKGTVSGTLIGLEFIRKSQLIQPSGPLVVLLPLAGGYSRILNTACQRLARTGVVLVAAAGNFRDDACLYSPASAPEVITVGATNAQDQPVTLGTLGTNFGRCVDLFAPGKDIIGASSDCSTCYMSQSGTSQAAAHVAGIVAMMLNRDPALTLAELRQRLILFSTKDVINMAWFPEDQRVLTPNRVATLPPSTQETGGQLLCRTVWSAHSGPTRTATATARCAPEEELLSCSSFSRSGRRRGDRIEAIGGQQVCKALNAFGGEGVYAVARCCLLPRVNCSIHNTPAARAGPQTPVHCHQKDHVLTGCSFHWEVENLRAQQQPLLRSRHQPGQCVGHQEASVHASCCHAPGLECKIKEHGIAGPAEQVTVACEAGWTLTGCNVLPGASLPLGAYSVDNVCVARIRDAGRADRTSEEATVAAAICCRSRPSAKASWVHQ

B1: L1L3: humanized (<5% murine residues) monoclonal PCSK9 antagonist antibody that binds to secreted PCSK9; VH SEQ ID NO: 11, VL SEQ ID NO: 12 (antibody, V domains shown)
VH: QVQLVQSGAEVKKPGASVKVSCKASGYTFTSYYMHWVRQAPGQGLEWMGEISPFGGRTNYNEKFKSRVTMTRDTSTSTVYMELSSLRSEDTAVYYCARERPLYASDLWGQGTTVTVSS
VL: DIQMTQSPSSLSASVGDRVTITCRASQGISSALAWYQQKPGKAPKLLIYSASYRYTGVPSRFSGSGSGTDFTFTISSLQPEDIATYYCQQRYSLWRTFGQGTKLEIK
modifications: heavy chain variable region; light chain variable region
- Non-fasting serum triglyceride levels, maximum increase (PCSK9 [1]; single IP 80 mg/kg): approximately three
- Serum cholesterol reduction, maximum effect (PCSK9 [1]; single IP 10 and 80 mg/kg, 48 hours post dosing): 50%
- Day by which LDL-C recovered (PCSK9 [2]; single IV 0.1 mg/kg): ≤ 5 days
- LDL-C drop (transient) (PCSK9 [2]; single IV 0.1 mg/kg, day 2): 50%
- Day by which LDL-C reached pre-dose levels (PCSK9 [2]; single IV 1 mg/kg): ≤ 14 days
- LDL-C reduction, maximum effect (PCSK9 [2]; single IV 1 mg/kg, day 5): 71%
- Day by which LDL-C returned to baseline (PCSK9 [2]; single IV 3 mg/kg): ≤ 22 days
- LDL-C reduction, maximum effect (PCSK9 [2]; single IV 3 mg/kg, by day 7): 72%
- Day by which animals fully recovered (LDL-C) (PCSK9 [2]; single IV 10 mg/kg): ≤ 31 days
- LDL-C reduction (PCSK9 [2]; single IV 10 mg/kg, maintained until day 21 post-dosing): 70%
- HDL-C levels (PCSK9 [2]; single IV 0.1, 1, 3, 10 mg/kg, all dose groups): not affected
- Serum HDL-C levels (PCSK9 [2]; two additional IV doses of 3 mg/kg on study days 42 and 56): remained unchanged
- LDL-C levels (PCSK9 [2]; two additional IV doses of 3 mg/kg on study days 42 and 56, for 4 weeks): below 50%
- Estimated β-phase half-life ([3]; single i.v. 0.1 mg/kg): 16.1 h
- Estimated β-phase half-life ([3]; single i.v. 1.0 mg/kg): 45.8 h
- Estimated β-phase half-life ([3]; single i.v. 3.0 mg/kg): 55.9 h
- Estimated β-phase half-life ([3]; single i.v. 10.0 mg/kg): 83.8 h
- Estimated β-phase half-life ([3]; single i.v. 100.0 mg/kg): 126 h
- AUC(0-∞) ([4]; single IV 0.3 mg/kg, mean): 34997.88 ng·days/mL
- Cl ([4]; single IV 0.3 mg/kg, mean): 8.70 mL/day/kg
- Cmax ([4]; single IV 0.3 mg/kg, mean): 10.31967 µg/mL
- Half-life ([4]; single IV 0.3 mg/kg, mean): 65.8 h
- Vss ([4]; single IV 0.3 mg/kg, mean): 0.03177 L/kg
- AUC(0-∞) ([4]; single IV 0.3 mg/kg, median): 33748.15 ng·days/mL
- Cl ([4]; single IV 0.3 mg/kg, median): 8.92 mL/day/kg
- Cmax ([4]; single IV 0.3 mg/kg, median): 10.5375 µg/mL
- Half-life ([4]; single IV 0.3 mg/kg, median): 65 h
- Vss ([4]; single IV 0.3 mg/kg, median): 0.03074 L/kg
- AUC(0-∞) ([4]; single IV 1 mg/kg, mean): 156399.94 ng·days/mL
- Cl ([4]; single IV 1 mg/kg, mean): 6.58 mL/day/kg
- Cmax ([4]; single IV 1 mg/kg, mean): 29.25183 µg/mL
- Half-life ([4]; single IV 1 mg/kg, mean): 115 h
- Vss ([4]; single IV 1 mg/kg, mean): 0.04159 L/kg
- AUC(0-∞) ([4]; single IV 1 mg/kg, median): 166736.58 ng·days/mL
- Cl ([4]; single IV 1 mg/kg, median): 6.00 mL/day/kg
- Cmax ([4]; single IV 1 mg/kg, median): 28.2315 µg/mL
- Half-life ([4]; single IV 1 mg/kg, median): 114 h
- Vss ([4]; single IV 1 mg/kg, median): 0.04234 L/kg
- AUC(0-∞) ([4]; single IV 3 mg/kg, mean): 709485.10 ng·days/mL
- Cl ([4]; single IV 3 mg/kg, mean): 4.54 mL/day/kg
- Cmax ([4]; single IV 3 mg/kg, mean): 96.7115 µg/mL
- Half-life ([4]; single IV 3 mg/kg, mean): 210 h
- Vss ([4]; single IV 3 mg/kg, mean): 0.04906 L/kg
- AUC(0-∞) ([4]; single IV 3 mg/kg, median): 728278.54 ng·days/mL
- Cl ([4]; single IV 3 mg/kg, median): 4.12 mL/day/kg
- Cmax ([4]; single IV 3 mg/kg, median): 100.6205 µg/mL
- Half-life ([4]; single IV 3 mg/kg, median): 194 h
- Vss ([4]; single IV 3 mg/kg, median): 0.04894 L/kg
- AUC(0-∞) ([4]; single IV 6 mg/kg, mean): 1446945.71 ng·days/mL
- Cl ([4]; single IV 6 mg/kg, mean): 4.33 mL/day/kg
- Cmax ([4]; single IV 6 mg/kg, mean): 175.85433 µg/mL
- Half-life ([4]; single IV 6 mg/kg, mean): 201 h
- Vss ([4]; single IV 6 mg/kg, mean): 0.06045 L/kg
- AUC(0-∞) ([4]; single IV 6 mg/kg, median): 1289916.44 ng·days/mL
- Cl ([4]; single IV 6 mg/kg, median): 4.65 mL/day/kg
- Cmax ([4]; single IV 6 mg/kg, median): 177.485 µg/mL
- Half-life ([4]; single IV 6 mg/kg, median): 186 h
- Vss ([4]; single IV 6 mg/kg, median): 0.06133 L/kg
- AUC(0-∞) ([4]; single IV 12 mg/kg, mean): 3768691.17 ng·days/mL
- Cl ([4]; single IV 12 mg/kg, mean): 3.28 mL/day/kg
- Cmax ([4]; single IV 12 mg/kg, mean): 353.96017 µg/mL
- Half-life ([4]; single IV 12 mg/kg, mean): 492.7 h
- Vss ([4]; single IV 12 mg/kg, mean): 0.07225 L/kg
- AUC(0-∞) ([4]; single IV 12 mg/kg, median): 3599992.39 ng·days/mL
- Cl ([4]; single IV 12 mg/kg, median): 3.36 mL/day/kg
- Cmax ([4]; single IV 12 mg/kg, median): 357.671 µg/mL
- Half-life ([4]; single IV 12 mg/kg, median): 293.8 h
- Vss ([4]; single IV 12 mg/kg, median): 0.05752 L/kg
- AUC(0-∞) ([4]; single IV 18 mg/kg, mean): 4812012.99 ng·days/mL
- Cl ([4]; single IV 18 mg/kg, mean): 3.85 mL/day/kg
- Cmax ([4]; single IV 18 mg/kg, mean): 532.44917 µg/mL
- Half-life ([4]; single IV 18 mg/kg, mean): 311.3 h
- Vss ([4]; single IV 18 mg/kg, mean): 0.06546 L/kg
- AUC(0-∞) ([4]; single IV 18 mg/kg, median): 4857618.28 ng·days/mL
- Cl ([4]; single IV 18 mg/kg, median): 3.71 mL/day/kg
- Cmax ([4]; single IV 18 mg/kg, median): 560.4635 µg/mL
- Half-life ([4]; single IV 18 mg/kg, median): 282.2 h
- Vss ([4]; single IV 18 mg/kg, median): 0.06083 L/kg
- Anti-drug antibodies (ADA) [5]: No subject had positive ADA
- Safety and tolerability [5]: generally safe and well-tolerated
- Changes in LFTs, CK, ECGs, and BP ([5]; in most cases considered not related to treatment): transient, mild in nature
